Experiment [1] has as its target T1, mature TGFα (R&D Systems, 239-A) (human, UniProt P01135 40-89). Description: ELISA on immobilized mature TGFα, COS-7 supernatant.
For experiment [2], the target named is T1, mature TGFα (R&D Systems, 239-A). Description: ELISA on immobilized mature TGFα (R&D Systems, 239-A). (In general: In an ELISA, binding on a coated surface is turned into a signal by an enzyme label.)
For experiment [3] the target is unchanged. Briefly: ELISA on immobilized TGFα (R&D Systems, 239-A).

B1: #2-20 mouse chimeric IgG2a recombinant antibody (#2-20 VH/VL with mouse IgG2a constant region) (antibody)
heavy: DVQLQESGPGLVKPSQSLSLTCTVTGYSITSDYAWNWIRLFPGNKLEWMGFINYSGNTSYNPSLKSRISITRDTSKNQFFLKLNSLTTDDTATYYCARGGLSRFPYWGQGTLVTVSAAKTTAPSVYPLAPVCGGTTGSSVTLGCLVKGYFPEPVTLTWNSGSLSSGVHTFPALLQSGLYTLSSSVTVTSNTWPSQTITCNVAHPASSTKVDKKIEPRVPITQNPCPPLKECPPCAAPDLLGGPSVFIFPPKIKDVLMISLSPMVTCVVVDVSEDDPDVQISWFVNNVEVHTAQTQTHREDYNSTLRVVSALPIQHQDWMSGKEFKCKVNNRALPSPIEKTISKPRGPVRAPQVYVLPPPAEEMTKKEFSLTCMITGFLPAEIAVDWTSNGRTEQNYKNTATVLDSDGSYFMYSKLRVQKSTWERGSLFACSVVHEGLHNHLTTKTISRSLGK
light: DIQMTQTTSSLSASLGDRVTISCRSSQDIRNYLNWYQQKPDGTVKLLIYYTSRSHSGVPSRFSGSGSGTDYSLTISNLEQEDIATYFCQQGNMFPFTFGGGTKLEIKRADAAPTVSIFPPSSEQLTSGGASVVCFLNNFYPKDINVKWKIDGSERQNGVLNSWTDQDSKDSTYSMSSTLTLTKDEYERHNSYTCEATHKTSTSPIVKSFNRNEC
notes: Transiently expressed in COS-7 and tested as culture supernatant; also called recombinant mouse chimeric IgG2a antibody; mouse IgG2a antibody
For the molecule B1, the binding result in experiment [1] is “binds”.

B2: #2-20 recombinant human chimeric antibody (#2-20 VH/VL with human IgG1 constant region) (antibody)
heavy: not shown
light: DIQMTQTTSSLSASLGDRVTISCRSSQDIRNYLNWYQQKPDGTVKLLIYYTSRSHSGVPSRFSGSGSGTDYSLTISNLEQEDIATYFCQQGNMFPFTFGGGTKLEIKRTVAAPSVFIFPPSDEQLKSGTASVVCLLNNFYPREAKVQWKVDNALQSGNSQESVTEQDSKDSTYSLSSTLTLSKADYEKHKVYACEVTHQGLSSPVTKSFNRGEC
notes: Transiently expressed in COS-7 and tested as culture supernatant
Regarding B2, the binding result in experiment [1] is “binds”.

B3: mouse hybridoma anti-TGFα antibody #2-20 (antibody, V domains shown)
VH: DVQLQESGPGLVKPSQSLSLTCTVTGYSITSDYAWNWIRLFPGNKLEWMGFINYSGNTSYNPSLKSRISITRDTSKNQFFLKLNSLTTDDTATYYCARGGLSRFPYWGQGTLVTVSA
VL: DIQMTQTTSSLSASLGDRVTISCRSSQDIRNYLNWYQQKPDGTVKLLIYYTSRSHSGVPSRFSGSGSGTDYSLTISNLEQEDIATYFCQQGNMFPFTFGGGTKLEIK
notes: Mouse IgG purified from hybridoma supernatant; also called #2-20 antibody; mouse #2-20 antibody
Turning to B3, the binding result in experiment [2] is recorded as “binds”.

B4: EP19 monoclonal antibody (mouse hybridoma anti-EREG antibody) (antibody, V domains shown)
VH: EVQLQQSGPELEKPGASVKISCKASGYSFTGYNMNWVKQSNGKSLEWIGNIDPYYGAASYNQKFKGKATLTVDKSSSTAYMQLKSLTSEDSAVYYCARSQLPYWYFDVWGAGTTVTVSS
VL: DIVMTQSPSSLTVTAGEKVTMSCKSSQSLLNSGNQKNYLTWYQQKPGQPPKLLIYWASTRESGVPDRFTGSGSGTDFTLTISSVQAEDLAVYYCQNDYSYPYTFGGGTKLEIK
notes: Hybridoma antibody from WO 2008/047723; The variable region entries may include leader residues; also called EP19 antibody
On to B4, for which the binding result in experiment [3] is “binds”.

Source of the values: patent publication US20120141501A1 (Chugai, published 2012).
